Kd data for two molecules are collected here from article PMC12096439, “Ion-DNA Interactions as a Key Determinant of Uracil DNA Glycosylase Activity”.

The Kd is the free concentration of one partner at which half of the binding sites on the other are occupied at equilibrium, for simple one-to-one binding.

The target of this data set is UNG2-Fluor (human, UniProt P13051 =C+1-313, C141A;C166A;C290A;internal_change). Nature of the data set: fluorescence quenching titration; 1 mM MgCl2; 10 mM Tris-Cl, 0.1 mM EDTA, pH 8.0, 2 mM NaCl carry-over, MgCl2 varied, 22 C, 50 nM UNG2-Fluor; ex 495 nm, em 520 nm. Conditions: protein: recombinant; tags: N-terminal fluorescein (maleimide on added Cys); label: 5' Iowa Black FQ; single strand.
UNG2-Fluor, sequence (P13051 other isoform, or with tags, fused parts or gaps C141A;C166A;C290A;): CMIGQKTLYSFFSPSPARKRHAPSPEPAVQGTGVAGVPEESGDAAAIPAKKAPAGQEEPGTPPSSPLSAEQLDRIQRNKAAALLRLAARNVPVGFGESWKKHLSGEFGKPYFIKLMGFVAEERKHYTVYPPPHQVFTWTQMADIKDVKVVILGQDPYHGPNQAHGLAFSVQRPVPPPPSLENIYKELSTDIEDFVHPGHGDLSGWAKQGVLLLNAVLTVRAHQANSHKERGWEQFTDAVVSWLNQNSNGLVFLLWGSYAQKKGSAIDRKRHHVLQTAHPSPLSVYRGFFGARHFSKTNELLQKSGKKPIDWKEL

Consider CGATAG (ssDNA) [6 nt dark quencher ssDNA], for which the Kd was found to be 1000 nM. For TCAGGTGAATCGATAGCTAAGAGCATG (ssDNA) [27 nt dark quencher ssDNA], the Kd amounted to 3 nM.
